{"source": "paper doi:10.1101/2021.10.01.462756", "about": "(bioRxiv, 2021)", "binders": {"B1": {"name": "9-1-1 clamp (Ddc1–Mec3–Rad17) (complex)", "chain 1": "MSFKATITESGKQNIWFRAIYVLSTIQDDIKITVTTNELIAWSMNETDTTLCQVRFQKSFFEEYEFKPHEIVFGENGVQVIEDTYGNSHKLYSFRVNGRHLTTISRKPDGDGIKSFTIAVNNTSTCPESLANRLIVVIEMDSLIVKEYCPQFQPIKYDPIIINLKYKRRFLDVFGTAASDRNPQEPLDPKLLDVFTNTERELTSALFNEEVESDIRKRNQLTAADEINYICCNSTLLKNFLDNCNVNVTDEVKLEINVHRLSITAFTKAVYGKNNDLLRNALSMSNTISTLDLEHYCLFTTIEDEKQDKRSHSKRREHMKSIIFKLKDFKNFITIGPSWKTTQDGNDNISLWFCHPGDPILMQMQKPGVKLELVEVTDSNINDDILEGKFIKTAISGSKEEAGLKDNKESCESPLKSKTALKRENLPHSVAGTRNSPLKVSYLTPDNGSTVAKTYRNNTARKLFVEEQSQSTNYEQDKRFRQASSVHMNMNREQSFDIGTTHEVACPRNESNSLKRSIADICNETEDPTQQSTFAKRADTTVTWGKALPAADDEVSCSNIDRKGMLKKEKLKHMQGLLNSQNDTSNHKKQDNKEMEDGLGLTQVEKPRGIFD", "chain 2": "MKLKLIVNGCEAPDDYKLLRTTINTVASLRKTAILRFNSERLTIISTPKSSLNSSNNGTILRGDTGQLWCTIPHDVFRLYTVISARELNTITMECNCDSLLSVFKRYDRVMNQGSSSNMTIKLQSMPEWNTNNGTLSGGTAGGVDTTSKPNPICALGITFEEIVHTSGPNDAIVMNGGVDEHNGLPTTVGTGNLLASNKVIMHSFKVPVKLLFRAQDTRIQEPMINYIQLMMYKLPPISGEFGSAFHGFIRRVERYSNVNHIHLMGVKKKEHGNEGDDVELKIIVNELDWHLEICWNGPLDSVIQRQEGLTDNPSQNQHIDTDGRQEEGSLPIIEADKPMSSLYTNTRDREMEENIRYDEDLLRIEDSSIADTRGNIYTADTSGDTEFNDISVMVEKAEQESSSTHEVIIRCKDWKVCSKLYAAFEEVVLAISHDESCVFHCSLDRGSLEDSEDVEKPRERGQIIYYIARSKGL", "chain 3": "MRINSELANKFSASTVHLEHITTALSCLTPFGSKDDVLIFIDADGLSFVRENNHVIKIQLLLSRELFMSYSYRNETEDHMKLCVKINHILDSVSVMNRNSDDIVECTLSYDGHGSPFVLIFEDSFISERVEYSTYLIKDFDTNGLELDRERISFEAIIKGEALHSALKDLKEIGCKECYVYAKTEANDENVFALISKSQLGFSKIKLPSNRSILEKLQVFDGDSTTVIDGFAVIGFFDFTSFDKIRKSTKIASKVLFRMDVHGVLSVNILSQTDDVIITDTTRPSNNRPGSIRQLQLPKDYPGIVIEVCMLEKESIDEAAQTEIELLMETNELGNRNSFKKSTIRKRYGTDKGNETSNDNLLQLNGKKIKLPSEEENNKNRESEDEENHCKYPTKDIPIFF"}, "B2": {"name": "Rad17 (natural protein)", "chain": "B1 chain 3"}}, "assay_in_all_cases": "cryo-EM structure", "key": {"[1]": {"biological_target": "Rad24-RFC clamp loader (Rad24, Rfc2, Rfc3, Rfc4, Rfc5) (S. cerevisiae, UniProt P32641;P40348;P38629;P40339;P38251)"}, "[2]": {"biological_target": "T1, His-PK-Mec3 (S. cerevisiae, UniProt Q02574 1-474)", "T1 sequence": "B1 chain 2"}, "[3]": {"biological_target": "T2, Ddc1 (S. cerevisiae, UniProt Q08949 1-612)", "T2 sequence": "B1 chain 1"}}}
{"binder": "B1", "values": [{"measurement": "binding result", "setting": "[1]", "value": "binds"}]}
{"binder": "B2", "values": [{"measurement": "binding result", "setting": "[2]", "value": "binds"}, {"measurement": "binding result", "setting": "[3]", "value": "binds"}]}
